{
  "source": "paper PMC8537947",
  "about": "“Improved Radiolytic Stability of a ^68Ga-labelled Collagelin Analogue for the Imaging of Fibrosis” (Pharmaceuticals, 2021)",
  "key": {"[1]": {"assay": "in vivo", "settings": "female, BALB/c, mouse, iv, total radioactivity", "method": "The animals (BALB/c female mice, n = 6) were administered with carbon tetrachloride (CCl4) formulated in a corn oil solution (20%, 0.5 mg per gram of body weight) into the lower side of the abdomen three times a week for three weeks. The wellbeing of the animals was monitored for 30 min after the injection and once per day afterwards. The development of liver fibrosis was confirmed by post-mortem Sirius Red staining of the PFA liver biopsies.\nHealthy mice (n = 4, 19.6 ± 1.0 g) and mice with CCl4 induced liver fibrosis (n = 5, 21.55 ± 1.12 g) were intravenously administered with [^68Ga]Ga-NO2A-[Nle^13]-Col (5.2 ± 2.1 MBq, 0.31 ± 0.09 ug and 6.1 ± 2.1 MBq, 0.35 ± 0.08 ug) and the tracer organ distribution was studied after a 60 min incubation ex vivo (Table S1). The weight of the excised organs of interest (blood, heart, lung, liver, pancreas, spleen, kidney, intestines, muscle, brain) was noted and the radioactivity was measured using an automated gamma counter (2480 Wizard2^TM, PerkinElmer, Waltham, MA, USA) with a correction for dead-time and radioactivity decay."}, "[2]": {"design": "species or system human", "text": "The rat SUVs were translated into a percentage of injected activity (%IA, Equation (3)) for human organs according to Equation (3) (Table S3), where SUVA is the SUVs of the rat organs; gorgan and kgTBweight are, respectively, standard organ weight and standard total body weight of a human. The standard organ masses and total-body weight values were obtained from the OLINDA software (organ level internal dose assessment code, Vanderbilt University, USA, 2007). (3) %IAOrganhuman=SUVA∗gorgan/kgTBweighthuman The %IA values were decay corrected to the animal termination time point at 5, 10, 30, 40, 60, and 120 min post administration and plotted as a function of time. The area under the curve for each organ was integrated using the trapezoid method assuming a simple exponential decay to eternity after the last point. The derived time-integrated activity coefficient (TIAC) for each organ, which is equal to the number of disintegrations (MBq-h/MBq) and dose rate S-values extracted from the Medical Internal […] (MIRD) pamphlet, was used for the computation of organ and whole-body effective doses (mSv/MBq) in humans in the OLINDA/EXM software package (Version 1.1, Vanderbilt University)."}},
  "note": "Bridge positions count the residues as written; N and C are the ends. Square brackets hold non-standard residues; d marks the D form. Peptide text beside a SMILES is read from it. * marks the point of attachment. NOTA = O=C(O)CN1CCN(CC(=O)O)CCN(CC(=O)*)CC1; Nle = CCCC[C@H](N)C(=O)O; AEEA = NCCOCCOCC(=O)O",
  "data": [
    {"smiles": "CCCC[C@@H]1NC(=O)[C@H](C(C)C)NC(=O)[C@H](CCCNC(=N)N)NC(=O)CNC(=O)[C@@H]2CCCN2C(=O)[C@@H](NC(=O)COCCOCCNC(=O)CN2CCN(CC(=O)O)CCN(CC(=O)O)CC2)CSSC[C@@H](C(=O)O)NC(=O)[C@@H]2CCCN2C(=O)CNC(=O)[C@H](CCC(=O)O)NC(=O)[C@H](CC(=O)O)NC(=O)[C@H](CC(=O)O)NC(=O)CNC(=O)[C@H](CC(C)C)NC(=O)[C@H](Cc2c[nH]cn2)NC(=O)[C@H](CC(C)C)NC(=O)CNC(=O)[C@H](Cc2c[nH]cn2)NC1=O", "note": "[[^68Ga]Ga-NO2A-[Nle^13]-Col, [^68Ga]Ga-NOTA-PEG2-c[CPGRVNleHGLHLGDDEGPC], metal not drawn] ({NOTA-AEEA}-CPGRV[Nle]HGLHLGDDEGPC-OH; disulfide 1-18)", "values": [
      {"measurement": "SUV at 1 h", "setting": "[1]; 5.2 MBq, SUV lungs (LU)", "result": 0.0679, "unit": "SUV"},
      {"measurement": "SUV at 1 h", "setting": "[1]; 6.1 MBq, SUV kidneys (KI)", "result": 2.12, "unit": "SUV"},
      {"measurement": "PET/CT examinations per year", "setting": "[2]", "result": "4-5"},
      {"measurement": "administration per year allowed by bone marrow absorbed dose", "setting": "[2]", "result": "8000-10,000 MBq per year"},
      {"measurement": "dose of all organs other than kidney", "setting": "[2]", "result": "lower than 0.02 mSv/MBq"},
      {"measurement": "dose of the remaining organs", "setting": "[2]", "result": "less than 0.009 mSv/MBq"},
      {"measurement": "estimated absorbed dose, spleen", "setting": "[2]", "result": 0.003, "unit": "mGy/MBq"}
    ]}
  ]
}
